Assay results from publication PMC9482650, “Quantitative fragmentomics allow affinity mapping of interactomes” (Nature Communications, 2022).

Key:
Test in all cases: holdup assay
Design in all cases: key: below the threshold = too weak to quantify, mostly under pKd 3.1 to 4
Conditions in all cases: plain residues with an end cap or a label only (N-terminal biotin on a linker: ado-ado)
ARHGEF11, O15085 = biological target: T1, ARHGEF11, O15085
T1 sequence (O15085 42-136, limits assumed, looked up): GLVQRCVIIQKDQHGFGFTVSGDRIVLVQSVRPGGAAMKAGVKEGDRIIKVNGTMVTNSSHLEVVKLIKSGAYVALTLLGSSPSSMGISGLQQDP

CARD11, Q9BXL7 = biological target: T2, CARD11, Q9BXL7
T2 sequence (Q9BXL7 662-765, limits assumed, looked up): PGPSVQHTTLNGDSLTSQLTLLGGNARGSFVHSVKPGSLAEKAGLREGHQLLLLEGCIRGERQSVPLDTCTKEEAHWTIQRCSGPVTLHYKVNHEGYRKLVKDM

DLG5_1, Q8TDM6 = biological target: DLG5_1, Q8TDM6
Sequence of DLG5_1, Q8TDM6 (Q8TDM6 617-713): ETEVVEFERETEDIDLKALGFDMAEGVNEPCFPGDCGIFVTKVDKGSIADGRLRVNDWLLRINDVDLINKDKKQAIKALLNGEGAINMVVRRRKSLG

DVL3, Q92997 = biological target: T3, DVL3, Q92997
T3 sequence (Q92997 244-331, limits assumed, looked up): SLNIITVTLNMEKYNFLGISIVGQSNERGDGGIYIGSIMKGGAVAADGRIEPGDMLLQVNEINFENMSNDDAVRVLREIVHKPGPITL

GIPC2, Q8TF65 = biological target: GIPC2, Q8TF65
Sequence of GIPC2, Q8TF65 (Q8TF65 112-203): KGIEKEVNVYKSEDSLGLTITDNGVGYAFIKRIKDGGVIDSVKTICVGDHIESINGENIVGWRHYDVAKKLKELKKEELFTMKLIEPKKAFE

GRASP, Q7Z6J2 = biological target: GRASP, Q7Z6J2
Sequence of GRASP, Q7Z6J2 (Q7Z6J2 96-193): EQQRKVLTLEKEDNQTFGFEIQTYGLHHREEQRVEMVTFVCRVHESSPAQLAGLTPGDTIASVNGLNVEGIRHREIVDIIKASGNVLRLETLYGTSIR

GRIP1_3, Q9Y3R0 = biological target: T4, GRIP1_3, Q9Y3R0
T4 sequence (Q9Y3R0 247-346, limits assumed, looked up): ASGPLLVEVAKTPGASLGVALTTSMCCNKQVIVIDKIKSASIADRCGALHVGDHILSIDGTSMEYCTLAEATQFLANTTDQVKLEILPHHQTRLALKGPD

GRIP1_7, Q9Y3R0 = biological target: T5, GRIP1_7, Q9Y3R0
T5 sequence (Q9Y3R0 999-1096, limits assumed, looked up): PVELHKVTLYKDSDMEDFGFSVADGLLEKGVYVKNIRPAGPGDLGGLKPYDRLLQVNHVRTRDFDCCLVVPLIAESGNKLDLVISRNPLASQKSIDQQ

GRIP2_5, Q9C0E4 = biological target: GRIP2_5, Q9C0E4
Sequence of GRIP2_5, Q9C0E4 (Q9C0E4 544-642): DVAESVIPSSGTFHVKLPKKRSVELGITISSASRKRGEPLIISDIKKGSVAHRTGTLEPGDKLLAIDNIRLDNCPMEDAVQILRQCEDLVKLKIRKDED

HTRA3, P83110 = biological target: T6, HTRA3, P83110
T6 sequence (P83110 354-453, limits assumed, looked up): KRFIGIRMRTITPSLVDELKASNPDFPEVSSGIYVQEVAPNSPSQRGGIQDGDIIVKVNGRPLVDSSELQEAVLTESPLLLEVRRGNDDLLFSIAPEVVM

IL16_1, Q14005 = biological target: IL16_1, Q14005
Sequence of IL16_1, Q14005 (Q14005 210-306): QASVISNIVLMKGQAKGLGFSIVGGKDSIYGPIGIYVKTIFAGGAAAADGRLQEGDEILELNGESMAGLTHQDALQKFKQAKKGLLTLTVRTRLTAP

Inadl_10, Q8NI35 = biological target: Inadl_10, Q8NI35
Sequence of Inadl_10, Q8NI35 (Q8NI35 1673-1763): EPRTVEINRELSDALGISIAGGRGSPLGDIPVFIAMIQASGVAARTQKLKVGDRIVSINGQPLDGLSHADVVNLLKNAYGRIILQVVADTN

LDB3, O75112 = biological target: LDB3, O75112
Sequence of LDB3, O75112 (O75112 1-94): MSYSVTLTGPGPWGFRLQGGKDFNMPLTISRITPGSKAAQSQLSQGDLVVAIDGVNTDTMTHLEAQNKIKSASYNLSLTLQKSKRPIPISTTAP

LNX1_1, Q8TBB1 = biological target: LNX1_1, Q8TBB1
Sequence of LNX1_1, Q8TBB1 (Q8TBB1 261-371): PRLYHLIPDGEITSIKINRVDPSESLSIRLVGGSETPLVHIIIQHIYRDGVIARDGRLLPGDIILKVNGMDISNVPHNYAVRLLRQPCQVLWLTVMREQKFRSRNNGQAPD

LNX1_3, Q8TBB1 = biological target: LNX1_3, Q8TBB1
Sequence of LNX1_3, Q8TBB1 (Q8TBB1 500-596): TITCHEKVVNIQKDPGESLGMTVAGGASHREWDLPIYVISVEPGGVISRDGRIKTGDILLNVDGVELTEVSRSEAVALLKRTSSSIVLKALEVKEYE

LNX2_3, Q8N448 = biological target: T7, LNX2_3, Q8N448
T7 sequence (Q8N448 463-564, limits assumed, looked up): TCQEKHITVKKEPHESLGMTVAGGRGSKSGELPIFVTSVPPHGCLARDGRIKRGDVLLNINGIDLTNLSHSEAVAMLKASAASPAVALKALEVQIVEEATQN

LRRC7, Q96NW7 = biological target: T8, LRRC7, Q96NW7
T8 sequence (Q96NW7 1440-1537, limits assumed, looked up): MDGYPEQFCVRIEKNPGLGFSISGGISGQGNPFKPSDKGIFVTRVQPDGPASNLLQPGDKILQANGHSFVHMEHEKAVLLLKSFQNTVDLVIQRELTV

MAGI1_2, Q96QZ7 = biological target: MAGI1_2, Q96QZ7
Sequence of MAGI1_2, Q96QZ7 (Q96QZ7 456-580): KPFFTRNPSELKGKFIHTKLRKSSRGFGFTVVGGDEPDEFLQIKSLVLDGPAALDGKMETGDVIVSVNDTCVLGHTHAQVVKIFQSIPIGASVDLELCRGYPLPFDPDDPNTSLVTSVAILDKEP

MAGI2_3, Q86UL8 = biological target: MAGI2_3, Q86UL8
Sequence of MAGI2_3, Q86UL8 (Q86UL8 600-682): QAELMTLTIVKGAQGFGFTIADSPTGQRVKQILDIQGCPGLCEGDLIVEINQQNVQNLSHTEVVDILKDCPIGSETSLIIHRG

MPDZ_12, O75970 = biological target: T9, MPDZ_12, O75970
T9 sequence (O75970 1857-1958, limits assumed, looked up): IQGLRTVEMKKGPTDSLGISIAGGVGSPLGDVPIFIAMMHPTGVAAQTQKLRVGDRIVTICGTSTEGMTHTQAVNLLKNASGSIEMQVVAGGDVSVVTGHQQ

NHERF4_1, Q86UT5-2 = biological target: NHERF4_1, Q86UT5-2
Sequence of NHERF4_1, Q86UT5-2 (Q86UT5 other isoform, or with tags, fused parts or gaps): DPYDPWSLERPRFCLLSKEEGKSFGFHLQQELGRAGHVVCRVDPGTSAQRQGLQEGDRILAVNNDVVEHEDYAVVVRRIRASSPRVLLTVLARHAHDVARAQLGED

NHERF4_2, Q86UT5 = biological target: NHERF4_2, Q86UT5
Sequence of NHERF4_2, Q86UT5 (Q86UT5 220-308): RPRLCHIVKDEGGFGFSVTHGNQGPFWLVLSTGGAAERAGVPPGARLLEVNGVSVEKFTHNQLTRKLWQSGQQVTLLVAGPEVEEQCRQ

NHERF4_4, Q86UT5 = biological target: NHERF4_4, Q86UT5
Sequence of NHERF4_4, Q86UT5 (Q86UT5 464-550): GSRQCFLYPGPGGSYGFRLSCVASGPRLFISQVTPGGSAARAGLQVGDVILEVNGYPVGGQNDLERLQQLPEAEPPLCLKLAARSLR

PDZRN4_1, Q6ZMN7 = biological target: PDZRN4_1, Q6ZMN7
Sequence of PDZRN4_1, Q6ZMN7 (Q6ZMN7 213-318): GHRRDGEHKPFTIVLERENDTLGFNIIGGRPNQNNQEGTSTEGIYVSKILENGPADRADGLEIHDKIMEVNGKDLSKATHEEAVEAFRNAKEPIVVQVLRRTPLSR

RHPN1, Q8TCX5 = biological target: T10, RHPN1, Q8TCX5
T10 sequence (Q8TCX5 508-602, limits assumed, looked up): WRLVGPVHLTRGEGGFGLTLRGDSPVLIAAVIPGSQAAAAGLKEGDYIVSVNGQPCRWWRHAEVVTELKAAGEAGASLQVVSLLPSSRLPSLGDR

SCRIB_1, Q14160 = biological target: SCRIB_1, Q14160
Sequence of SCRIB_1, Q14160 (Q14160 718-814): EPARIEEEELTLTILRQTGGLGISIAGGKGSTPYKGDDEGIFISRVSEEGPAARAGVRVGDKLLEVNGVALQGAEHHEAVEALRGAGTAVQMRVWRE

TJP1_2, Q07157 = biological target: TJP1_2, Q07157
Sequence of TJP1_2, Q07157 (Q07157 181-274): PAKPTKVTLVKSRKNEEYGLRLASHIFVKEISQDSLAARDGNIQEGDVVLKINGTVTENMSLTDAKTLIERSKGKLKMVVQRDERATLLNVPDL

TJP1_3, Q07157 = biological target: TJP1_3, Q07157
Sequence of TJP1_3, Q07157 (Q07157 416-512): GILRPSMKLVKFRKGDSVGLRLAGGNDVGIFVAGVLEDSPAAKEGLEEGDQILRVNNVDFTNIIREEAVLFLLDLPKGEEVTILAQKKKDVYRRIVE

B1: CTNNA2, P26232 (peptide)
chain: LSEFKAMDSF
pKd (ARHGEF11, O15085): below the threshold | pKd (CARD11, Q9BXL7): below the threshold | pKd (DLG5_1, Q8TDM6): below the threshold | pKd (DVL3, Q92997): below the threshold | pKd (GIPC2, Q8TF65): below the threshold | pKd (GRASP, Q7Z6J2): 4.13 | pKd (GRIP1_3, Q9Y3R0): below the threshold | pKd (GRIP1_7, Q9Y3R0): below the threshold | pKd (GRIP2_5, Q9C0E4): below the threshold | pKd (HTRA3, P83110): below the threshold | pKd (IL16_1, Q14005): below the threshold | pKd (Inadl_10, Q8NI35): below the threshold | pKd (LDB3, O75112): below the threshold | pKd (LNX1_1, Q8TBB1): below the threshold | pKd (LNX1_3, Q8TBB1): below the threshold | pKd (LNX2_3, Q8N448): below the threshold | pKd (LRRC7, Q96NW7): below the threshold | pKd (MAGI1_2, Q96QZ7): below the threshold | pKd (MAGI2_3, Q86UL8): below the threshold | pKd (MPDZ_12, O75970): below the threshold | pKd (NHERF4_1, Q86UT5-2): 4.37 | pKd (NHERF4_2, Q86UT5): below the threshold | pKd (NHERF4_4, Q86UT5): below the threshold | pKd (PDZRN4_1, Q6ZMN7): below the threshold | pKd (RHPN1, Q8TCX5): below the threshold | pKd (SCRIB_1, Q14160): below the threshold | pKd (TJP1_2, Q07157): below the threshold | pKd (TJP1_3, Q07157): below the threshold

B2: SLC1A4, P43007 (peptide)
chain: PELESKESVL
pKd (ARHGEF11, O15085): 3.94 | pKd (CARD11, Q9BXL7): below the threshold | pKd (DLG5_1, Q8TDM6): below the threshold | pKd (DVL3, Q92997): below the threshold | pKd (GIPC2, Q8TF65): below the threshold | pKd (GRASP, Q7Z6J2): 3.87 | pKd (GRIP1_3, Q9Y3R0): below the threshold | pKd (GRIP1_7, Q9Y3R0): below the threshold | pKd (GRIP2_5, Q9C0E4): below the threshold | pKd (HTRA3, P83110): below the threshold | pKd (IL16_1, Q14005): 3.9 | pKd (Inadl_10, Q8NI35): below the threshold | pKd (LDB3, O75112): below the threshold | pKd (LNX1_1, Q8TBB1): below the threshold | pKd (LNX1_3, Q8TBB1): below the threshold | pKd (LNX2_3, Q8N448): below the threshold | pKd (LRRC7, Q96NW7): 3.53 | pKd (MAGI1_2, Q96QZ7): below the threshold | pKd (MAGI2_3, Q86UL8): below the threshold | pKd (MPDZ_12, O75970): below the threshold | pKd (NHERF4_1, Q86UT5-2): 3.9 | pKd (NHERF4_2, Q86UT5): below the threshold | pKd (NHERF4_4, Q86UT5): below the threshold | pKd (PDZRN4_1, Q6ZMN7): 4.66 | pKd (RHPN1, Q8TCX5): 4.49 | pKd (SCRIB_1, Q14160): 4.18 | pKd (TJP1_2, Q07157): below the threshold | pKd (TJP1_3, Q07157): below the threshold

B3: BCR, P11274 (peptide)
chain: RQSILFSTEV
pKd (ARHGEF11, O15085): 5.19 | pKd (CARD11, Q9BXL7): below the threshold | pKd (DLG5_1, Q8TDM6): below the threshold | pKd (DVL3, Q92997): below the threshold | pKd (GIPC2, Q8TF65): 3.56 | pKd (GRASP, Q7Z6J2): 5.04 | pKd (GRIP1_3, Q9Y3R0): below the threshold | pKd (GRIP1_7, Q9Y3R0): below the threshold | pKd (GRIP2_5, Q9C0E4): below the threshold | pKd (HTRA3, P83110): 3.63 | pKd (IL16_1, Q14005): 3.85 | pKd (Inadl_10, Q8NI35): 4.32 | pKd (LDB3, O75112): below the threshold | pKd (LNX1_1, Q8TBB1): 4.85 | pKd (LNX1_3, Q8TBB1): 3.64 | pKd (LNX2_3, Q8N448): below the threshold | pKd (LRRC7, Q96NW7): 3.88 | pKd (MAGI1_2, Q96QZ7): 3.91 | pKd (MAGI2_3, Q86UL8): below the threshold | pKd (MPDZ_12, O75970): 4.41 | pKd (NHERF4_1, Q86UT5-2): 3.68 | pKd (NHERF4_2, Q86UT5): below the threshold | pKd (NHERF4_4, Q86UT5): below the threshold | pKd (PDZRN4_1, Q6ZMN7): 3.78 | pKd (RHPN1, Q8TCX5): 3.94 | pKd (SCRIB_1, Q14160): 4.69 | pKd (TJP1_2, Q07157): 3.62 | pKd (TJP1_3, Q07157): below the threshold

B4: HSPA5, P11021 (peptide)
chain: EEDTAEKDEL
pKd (ARHGEF11, O15085): 3.56 | pKd (CARD11, Q9BXL7): below the threshold | pKd (DLG5_1, Q8TDM6): below the threshold | pKd (DVL3, Q92997): below the threshold | pKd (GIPC2, Q8TF65): 3.55 | pKd (GRASP, Q7Z6J2): 3.94 | pKd (GRIP1_3, Q9Y3R0): below the threshold | pKd (GRIP1_7, Q9Y3R0): below the threshold | pKd (GRIP2_5, Q9C0E4): below the threshold | pKd (HTRA3, P83110): below the threshold | pKd (IL16_1, Q14005): below the threshold | pKd (Inadl_10, Q8NI35): below the threshold | pKd (LDB3, O75112): 3.68 | pKd (LNX1_1, Q8TBB1): 3.87 | pKd (LNX1_3, Q8TBB1): below the threshold | pKd (LNX2_3, Q8N448): 3.53 | pKd (LRRC7, Q96NW7): 3.47 | pKd (MAGI1_2, Q96QZ7): below the threshold | pKd (MAGI2_3, Q86UL8): below the threshold | pKd (MPDZ_12, O75970): 3.52 | pKd (NHERF4_1, Q86UT5-2): 3.8 | pKd (NHERF4_2, Q86UT5): below the threshold | pKd (NHERF4_4, Q86UT5): below the threshold | pKd (PDZRN4_1, Q6ZMN7): below the threshold | pKd (RHPN1, Q8TCX5): below the threshold | pKd (SCRIB_1, Q14160): below the threshold | pKd (TJP1_2, Q07157): below the threshold | pKd (TJP1_3, Q07157): below the threshold
